Assays:
[1] = molecular target: 人TIGIT-hFc (human) (UniProt Q495A1); experiment: blocking ELISA: Bio-CD155 on coated TIGIT-hFc; reference Ref1
[2] = molecular target: T1, CHO-K1-T1001细胞表达的人TIGIT (human) (UniProt Q495A1); experiment: cell ELISA on fixed CHO-K1-T1001 cells; reference Ref1
T1 sequence (looked up): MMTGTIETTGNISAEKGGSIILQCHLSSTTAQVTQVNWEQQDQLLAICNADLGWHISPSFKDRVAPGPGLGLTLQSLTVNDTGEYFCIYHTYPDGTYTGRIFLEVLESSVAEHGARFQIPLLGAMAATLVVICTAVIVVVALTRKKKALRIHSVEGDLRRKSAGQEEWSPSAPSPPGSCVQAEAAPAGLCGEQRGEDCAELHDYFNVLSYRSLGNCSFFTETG

B1: IF091 (鼠源单克隆抗体mab22) (antibody, V domains shown)
VH: EVKLVESGGGLVQPGGSLKLSCVASGFTFSSYTMSWVRQTPEKRLELVAEISSSGGSTYYPDTVKGRFTISRDNAKNTLFLQMNSLKSEDTAMYYCARPGLGAWFAYWGQGTLVTVSA
VL: DVLMTQTPLSLPVSLGDQASISCRSSQSIVHNSGNTYLEWYLQKPGQSPKLLIYKVSNRFSGVPDRFSGSGSGTDFTLKISRVEAEDLGIYYCFQFSHVPRTFGGGTKLEIK
fold better than Ref1 (阻断活性) [1]: 1.83 fold | fold better than Ref1 (结合活性) [2]: 1.73 fold
